The target in assay [1] is pVSV/H-2 K^b complex (mouse) (UniProt P01901). Description: flow cytometry on T2 K^b cells, control peptide (background). (In flow cytometry, cells or beads pass a laser one at a time.)
Assay [2] concerns the target unloaded H-2 L^d molecules on RMA-S L^d cells (mouse) (UniProt P01897). Description: direct flow cytometry on RMA-S L^d cells, unloaded (background).
Assay [3] concerns the target p2Ca/H-2 L^d complex (mouse) (UniProt P01897). Description: flow cytometry, serial dilutions on p2Ca-loaded RMA-S L^d cells, detected with H57-FITC.
Assay [4] shares this target. Description: flow cytometry competition with constant FITC-30.5.7 Fab on peptide-loaded RMA-S L^d cells.
For assay [5], the target named is H-2 L^d loaded with an irrelevant H-2 L^d binding peptide (mouse) (UniProt P01897). Kind of assay: direct flow cytometry on RMA-S L^d cells, irrelevant peptide (background).
Sequence of H-2 L^d loaded with an irrelevant H-2 L^d binding peptide (mouse) (P01897 25-309): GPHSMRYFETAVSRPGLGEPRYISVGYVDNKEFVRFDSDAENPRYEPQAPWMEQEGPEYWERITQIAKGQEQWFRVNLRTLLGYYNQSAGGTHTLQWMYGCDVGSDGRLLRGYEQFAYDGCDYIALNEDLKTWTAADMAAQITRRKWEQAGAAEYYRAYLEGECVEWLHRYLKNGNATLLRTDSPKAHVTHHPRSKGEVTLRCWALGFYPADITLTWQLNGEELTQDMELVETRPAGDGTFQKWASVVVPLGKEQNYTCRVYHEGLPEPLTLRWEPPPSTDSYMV
For assay [6], the target named is SIY/H-2 K^bm3 complex. Kind of assay: flow cytometry on peptide-loaded T2 K^bm3 cells.
Assay [7] concerns the target SIY/H-2 K^b complex (mouse) (UniProt P01901). Kind of assay: flow cytometry on peptide-loaded T2 K^b cells.
The target of assay [8] is QL9/H-2 L^d complex (mouse) (UniProt P01897). Description: direct flow cytometry on peptide-loaded L^d cells.
Sequence of QL9/H-2 L^d complex (mouse) (P01897 25-309, one chain of several): as the sequence (P01897 25-309) above
For assay [9] the target is unchanged. Description: flow cytometry, serial dilutions on QL9-loaded RMA-S L^d cells, detected with H57-FITC.
The target of assay [10] is SL9/H-2 L^d complex (mouse) (UniProt P01897). Description: direct flow cytometry on peptide-loaded RMA-S L^d cells.
Sequence of SL9/H-2 L^d complex (mouse) (P01897 25-309, one chain of several): as the sequence (P01897 25-309) above
For assay [11], the target named is p2Ca/H-2 L^d complex (mouse) (UniProt P01897). Kind of assay: flow cytometry on L^d cells loaded with graded peptide concentrations; highest value.
Sequence of p2Ca/H-2 L^d complex (mouse) (P01897 25-309, one chain of several): as the sequence (P01897 25-309) above
For assay [12] the target is unchanged. Description: flow cytometry competition with FITC-30.5.7 Fab on peptide-loaded RMA-S L^d cells.
A further assay has as its target dEV-8/H-2 K^bm3 complex. Kind of assay: cell-based or functional assay.
Assay [13] concerns the target p2Ca/H-2 L^d complex (mouse) (UniProt P01897). Kind of assay: cell-based or functional assay.
Assay [14] has as its target SIY/H-2 K^bm3 complex. Description: cell-based or functional assay.
Assay [15] has as its target SIY/H-2 K^b complex (mouse) (UniProt P01901). Description: cell-based or functional assay.
Assay [16] addresses serologically reactive H-2 L^d on RENCA cells (mouse) (UniProt P01897). Kind of assay: flow cytometry on unstimulated RENCA cells.
The target of assay [17] is unloaded H-2 L^d molecules on RMA-S L^d cells (mouse) (UniProt P01897). Description: direct flow cytometry on RMA-S L^d cells without peptide.
Sequence of unloaded H-2 L^d molecules on RMA-S L^d cells (mouse) (P01897 25-309): as above
Assay [18] concerns the target serologically reactive H-2 L^d on RENCA cells (mouse) (UniProt P01897). Description: flow cytometry on RENCA cells stimulated with 5-50 units/ml γ-IFN.
Assay [19] addresses QL9/H-2 L^d complex (mouse) (UniProt P01897). Kind of assay: flow cytometry on L^d cells loaded with graded peptide concentrations; highest value.
The target of assay [20] is TCR of 5KC, a moth cytochrome C (MCC)-specific, I-E^k-restricted T cell hybridoma. Description: flow cytometry on 5KC hybridoma cells; reference cells without primary reagent.
The target is the same in assay [21]. Kind of assay: flow cytometry on 5KC hybridoma cells.
Assay [22] has the same target. Description: cell-based or functional assay.

“And” between values parts separate entries of the source, which are not always exact repeats. Identical values can stand only once.

Sequence of serologically reactive H-2 L^d on RENCA cells (mouse) (P01897 25-362): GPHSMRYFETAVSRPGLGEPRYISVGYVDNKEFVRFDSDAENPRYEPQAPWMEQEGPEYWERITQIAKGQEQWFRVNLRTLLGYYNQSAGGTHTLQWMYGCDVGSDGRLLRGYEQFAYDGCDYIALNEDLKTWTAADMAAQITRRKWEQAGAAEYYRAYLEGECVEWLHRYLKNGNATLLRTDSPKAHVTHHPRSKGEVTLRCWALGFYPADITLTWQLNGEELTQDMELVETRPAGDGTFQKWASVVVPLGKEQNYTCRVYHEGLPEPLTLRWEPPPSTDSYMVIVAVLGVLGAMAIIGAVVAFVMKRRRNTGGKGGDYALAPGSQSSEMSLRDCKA
Sequence of 2C TCR on 2C CTL (A2KF29 whole entry): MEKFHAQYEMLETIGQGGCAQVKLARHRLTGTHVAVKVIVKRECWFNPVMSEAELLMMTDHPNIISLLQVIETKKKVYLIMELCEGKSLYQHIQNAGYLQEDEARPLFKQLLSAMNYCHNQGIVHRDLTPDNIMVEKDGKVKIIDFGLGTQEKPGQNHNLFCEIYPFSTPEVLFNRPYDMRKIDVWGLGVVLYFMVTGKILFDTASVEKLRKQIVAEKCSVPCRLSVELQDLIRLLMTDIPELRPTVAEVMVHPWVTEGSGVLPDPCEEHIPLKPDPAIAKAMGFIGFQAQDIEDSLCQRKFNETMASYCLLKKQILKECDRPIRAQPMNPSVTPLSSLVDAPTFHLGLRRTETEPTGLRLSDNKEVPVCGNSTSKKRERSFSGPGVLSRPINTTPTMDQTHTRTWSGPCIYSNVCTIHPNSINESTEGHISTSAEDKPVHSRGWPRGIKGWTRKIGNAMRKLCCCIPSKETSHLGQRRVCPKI
Sequence of SIY/H-2 K^b complex (mouse) (P01901 22-369, one chain of several): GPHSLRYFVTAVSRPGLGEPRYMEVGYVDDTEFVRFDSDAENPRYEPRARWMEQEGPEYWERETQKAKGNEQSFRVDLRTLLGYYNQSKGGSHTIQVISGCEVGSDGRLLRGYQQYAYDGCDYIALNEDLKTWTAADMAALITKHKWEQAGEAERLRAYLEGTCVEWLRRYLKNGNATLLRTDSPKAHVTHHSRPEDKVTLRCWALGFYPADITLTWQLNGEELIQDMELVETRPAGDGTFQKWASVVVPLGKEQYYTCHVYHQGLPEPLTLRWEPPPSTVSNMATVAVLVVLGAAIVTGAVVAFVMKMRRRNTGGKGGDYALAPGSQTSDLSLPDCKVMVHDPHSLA
Sequence of pVSV/H-2 K^b complex (mouse) (P01901 22-369, one chain of several): as above

As to “soluble divalent 2C TCR/Ig (from UniProt A2KF29)”, the MCF in [1] was 14 MCF; in assay [2], 10 MCF; in assay [5], 10 MCF; in the assay with SIY/H-2 K^bm3 complex [6], 36 MCF; in [7] it was 276 MCF; in assay [8], 3000 MCF. In addition, the results for the MCF in assay [10] and in assay [11] were 100 MCF and 600 MCF, respectively. The same substance gave a concentration required to detect binding in assay [3] of 3 nM. For the same substance, the Kapp in assay [4] turned out to be 108 nM. For the same substance, in assay [9], the lowest concentration at which binding was detected is under 1 nM.
The term Kd denotes the equilibrium constant for the complex coming apart. Read a low Kd as a tighter complex. For “soluble monovalent 2C TCR (from UniProt A2KF29)”, the figures for the concentration required to detect binding in assay [3] and in assay [9] were over 3000 nM and over 100 nM, respectively. In assay [4], this substance had a Kapp of over 2000 nM. Moreover, the Kd in [12] is over 2000 nM.
Regarding 2C TCR on 2C CTL (from UniProt A2KF29), the 2C CTL mediated lysis, LD50 (peptide concentration) is 0.5 ng/mL and 1 ng/mL with dEV-8/H-2 K^bm3 complex; 100 ng/mL with SIY/H-2 K^bm3 complex [14]; 10 ng/mL in assay [15]. The substance also yielded a 2C CTL mediated lysis of p2Ca-loaded T2 L^d cells, LD50 (peptide concentration) in assay [13] of 0.5 ng/mL.
Consider mAb 30.5.7 (antibody), for which the MCF in [16] was 500 MCF; in assay [18], 2670 to 3040 MCF; in assay [11], 3000 MCF; in assay [19], 3000 MCF. Further, in assay [17], the fold increase of mean channel fluorescence, cells at 27° C. against 37° C. worked out at 5 fold.
Substance “soluble divalent ^MCCI-E^k/IgG (peptide-MHC)” registered a fold increase of mean channel fluorescence in assay [20] of 15 fold. Besides, in assay [21], the lowest concentration at which specific staining was seen is 5 nM and the mean channel fluorescence was determined as 300 MCF. Further, in assay [22], the IL-2 production, fold stimulation over anti-CD3 mAb at 92 ng/ml was determined as 10 fold.

The record behind these values is patent publication US20120141482A1.
